Measurements from patent US20240101670A1 (Eli Lilly, published 2024).
Several values for one entry are separate records, joined by “and”; a condition that tells them apart may be missing. Identical values can stand only once. Values belong to the binder of their own block, whether it stands above or below them.

Tests used:
human LAIR1 on cells [1] = target: T1, human LAIR1 on cells (human, UniProt Q6GTX8 22-287); assay: flow cytometry, primary human CD4+ T cells (endogenous LAIR1)
T1 construct: also called hLAIR1; Jurkat-hLAIR1+
T1 sequence: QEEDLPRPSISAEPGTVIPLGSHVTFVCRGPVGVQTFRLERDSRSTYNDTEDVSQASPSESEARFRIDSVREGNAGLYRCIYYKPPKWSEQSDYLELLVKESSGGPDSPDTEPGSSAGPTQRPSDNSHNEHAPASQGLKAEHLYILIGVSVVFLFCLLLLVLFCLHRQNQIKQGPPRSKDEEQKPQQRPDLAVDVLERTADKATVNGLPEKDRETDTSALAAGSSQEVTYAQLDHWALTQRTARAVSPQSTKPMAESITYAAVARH
Procedure: (§1) The anti-human LAIR1 antibodies were evaluated for binding to human and cynomolgus monkey (cyno) LAIR1 engineered cell lines and primary human T cells that endogenously express LAIR1. Jurkat-hLAIR1+ (Jurkat cell overexpressing human LAIR1), Jurkat-LAIR1ko (Jurkat cell knocking out human LAIR1), Jurkat-cyLAIR1+ cells (Jurkat LAIR1ko cell expressing cyno LAIR1), and primary human T cells were incubated with the anti-human LAIR1 test antibodies. […] Cells were then washed and incubated with anti-human IgG Alexa Fluor 647 secondary antibody for 20 minutes at 4° C. Cells were then washed and antibody binding was evaluated by flow cytometry. For primary human T cells, cells were also stained for CD4 and CD8 to delineate CD4+ and CD8+ T cells.

human LAIR1 on cells [2] = target: T1, human LAIR1 on cells; assay: cell-based or functional assay
human LAIR1 on cells [3] = target: T1, human LAIR1 on cells; assay: flow cytometry, Jurkat-hLAIR1+ cells
Procedure: as §1

[4] = target: T2, cynomolgus monkey LAIR1 on cells (cynomolgus monkey); assay: flow cytometry, Jurkat-cyLAIR1+ cells
T2 construct: whole, on cells; Jurkat LAIR1ko cells expressing cyno LAIR1; also called cyno LAIR1; cyLAIR1
Procedure: as §1

[5] = target: T2, cynomolgus monkey LAIR1 on cells; assay: cell-based or functional assay
human LAIR1 on cells [6] = target: T1, human LAIR1 on cells; assay: cell-based or functional assay; remark: listed apart in the source
human LAIR1 on cells [7] = target: T1, human LAIR1 on cells; assay: cell-based or functional assay; remark: listed apart in the source
human LAIR1 on cells [8] = target: T1, human LAIR1 on cells; assay: flow cytometry, primary human CD8+ T cells (endogenous LAIR1)
Procedure: as §1

[9] = target: T3, soluble, extracellular domain (ECD) of LAIR1 (human, UniProt Q6GTX8 22-163); assay: SPR, Biacore 8K, 37 °C, antibody captured on anti-human kappa, LAIR1-ECD as analyte
T3 construct: Produced recombinantly; also called LAIR1-ECD; LAIR1 ECD protein
T3 chain: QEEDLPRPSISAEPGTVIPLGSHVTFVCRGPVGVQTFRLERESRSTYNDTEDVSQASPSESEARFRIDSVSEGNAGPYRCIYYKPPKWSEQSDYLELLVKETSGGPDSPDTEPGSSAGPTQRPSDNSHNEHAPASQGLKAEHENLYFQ
Procedure: Antibody binding affinity and kinetics were determined by surface plasmon resonance (SPR) using a Biacore 8K (Cytivia Life Sciences). Measurements were performed at 37° C. using HBS-EP+ as the running buffer (150 mM sodium chloride, 3 mM EDTA, 0.05% (w/v) surfactant P-20, and 10 mM HEPES, pH7.4). Binding experiments used the soluble, extracellular domain (ECD) of LAIR1 (SEQ ID NO: 17), produced recombinantly, which was diluted to working concentration in HBS-EP+ containing 0.1 mg/mL Bovine serum albumin. Goat anti-Human kappa (Southern Biotech) was immobilized on all eight flow cells of a CM4 sensor chip using an amine coupling kit.
Binding was evaluated using multiple analytical cycles. Each cycle is performed at a flow rate of 30 μL/minute and consists of the following steps: injection of antibody over a different flow cell (25 μL of antibody at 0.5 μg/mL at 10 μL/minute), injection of 75 μL (30 μL/min, for 150 seconds) of each LAIR1-ECD dilution (starting at 1 μM and using three-fold serial dilutions to 1.4 nM for each cycle, with one injection for each concentration) followed by a 1200 second delay for dissociation, and chip surface regeneration using three 15 μL injections (30 μL/min, for 30 seconds) of 10 mM glycine hydrochloride, pH1.7. Association and dissociation rates for each cycle were determined by fitting of the biosensor data to a simple 1:1 association model using the provided instrument analysis software to extract the kₒₙ and koff rate constants; the equilibrium binding constant KD was calculated using the relationship Kd=koff/kₒₙ.

Human C1q = target: T4, Human C1q (human, UniProt P02745 23-245; P02746 28-253; P02747 29-245); assay: ELISA: antibody coated on the plate at the concentration shown, human C1q added at 10 ug/mL, detection with sheep anti-human C1q-HRP, OD450
T4 construct: Bought (MS Biomedical); also called complement component C1q
Procedure: Testing was performed in duplicate wells. The plate was sealed and incubated overnight at 4° C. The coating reagent was removed from each well, and 200 μL/well of casein blocking reagent (Thermo) was added. The plate was sealed and incubated for 2 hours at room temperature (RT). Each well was washed 3 times with wash buffer (1×TBE with 0.05% Tween 20). One hundred microliters per well of Human C1q (MS Biomedical) at 10 μg/mL diluted in casein blocking reagent was added and incubated for 3 hours at RT. The plate was then washed three times with wash buffer before 100 μL/well of a 1:800 times dilution of Sheep anti-human C1q-HRP (Abcam #ab46191) in casein blocker was added and incubated for 1 hour at RT. The plate was washed 6 times with wash buffer, and 100 μL/well of TMB Substrate (Pierce) was added to each well and incubated for 7 minutes. […] Optical density was immediately measured using a colorimetric microplate reader set to 450 nm.

human LAIR1 on cells [10] = target: T1, human LAIR1 on cells; assay: in vivo receptor occupancy by FACS on splenocytes, CD4 T cells; fit table; log10 of the dose, unit not given
human LAIR1 on cells [11] = target: T1, human LAIR1 on cells; assay: in vivo receptor occupancy by FACS on splenocytes, CD8 T cells; fit table; log10 of the dose, unit not given
Excerpt: Human peripheral blood mononuclear cells (PBMCs) were engrafted into NSG mice where the human immune cells recognize the mouse as foreign and mount an immune response resulting in Graft versus Host Disease (GvHD). […] Blood was obtained on day 5 by retro-orbital sinus and day 8 by cardiac puncture and processed for analyses of serum cytokines (MSD human pro-inflammatory cytokine panel) and drug exposure (antigen capture ELISA).

human LAIR1 on cells [12] = target: T1, human LAIR1 on cells; assay: cell-based or functional assay; remark: listed apart in the source
LAIR2 = target: T5, LAIR2 (human, UniProt Q6ISS4 22-152); assay: ELISA on hLAIR2, O.D.560 against antibody concentration
T5 construct: also called human LAIR2
T5 sequence (looked up): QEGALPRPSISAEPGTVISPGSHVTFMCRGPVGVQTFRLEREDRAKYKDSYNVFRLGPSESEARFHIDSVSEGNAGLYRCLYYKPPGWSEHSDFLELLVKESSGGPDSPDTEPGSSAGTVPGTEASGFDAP

human LAIR1 on cells [13] = target: T1, human LAIR1 on cells; assay: in vivo receptor occupancy by FACS on splenocytes, Treg; fit table; log10 of the dose, unit not given

T4 sequence (P02745 23-245 limits assumed, chain 1 of 3): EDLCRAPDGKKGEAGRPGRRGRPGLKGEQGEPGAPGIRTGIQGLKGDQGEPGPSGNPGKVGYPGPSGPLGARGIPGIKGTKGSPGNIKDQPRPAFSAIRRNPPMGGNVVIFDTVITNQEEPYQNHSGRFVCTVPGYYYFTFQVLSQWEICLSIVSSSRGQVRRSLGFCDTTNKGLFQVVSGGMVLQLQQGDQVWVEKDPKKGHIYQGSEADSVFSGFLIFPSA
T4 sequence (P02746 28-253 limits assumed, chain 2 of 3): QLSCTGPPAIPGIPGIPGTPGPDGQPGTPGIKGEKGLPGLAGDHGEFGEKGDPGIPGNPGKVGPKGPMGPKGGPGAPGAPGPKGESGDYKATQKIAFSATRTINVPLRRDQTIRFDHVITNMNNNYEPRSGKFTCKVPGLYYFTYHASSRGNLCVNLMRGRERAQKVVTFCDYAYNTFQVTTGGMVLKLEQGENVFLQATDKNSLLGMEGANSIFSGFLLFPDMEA
T4 sequence (P02747 29-245 limits assumed, chain 3 of 3): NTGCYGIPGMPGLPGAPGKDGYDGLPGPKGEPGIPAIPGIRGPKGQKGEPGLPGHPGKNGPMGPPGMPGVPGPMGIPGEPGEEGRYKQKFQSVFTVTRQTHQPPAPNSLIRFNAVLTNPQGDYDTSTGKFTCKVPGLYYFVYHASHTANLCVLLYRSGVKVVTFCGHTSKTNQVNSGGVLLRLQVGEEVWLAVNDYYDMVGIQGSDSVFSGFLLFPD

EC50 (human LAIR1 on cells [1]): 0.037 mg/L
Inhibition of IFN-γ response at 1 µg/mL (% inhibition vs. no antibody), primary human T cells (human LAIR1 on cells [2]): 35.7%
EC50 (human LAIR1 on cells [3]): 0.0548 mg/L
EC50 [4]: 0.0784 mg/L
Inhibition of NFAT Activity (% inhibition vs. no antibody), Jurkat-cyLAIR1+ [5]: 44.2%
IC50 of antibody activity, Jurkat-hLAIR1+ NFAT (human LAIR1 on cells [6]): 0.00942 mg/L
Inhibition of NFAT Activity (% inhibition vs. no antibody), Jurkat-hLAIR1+ (human LAIR1 on cells [6]): 54.2%
Inhibition of IL-6 response at 8 ng/mL (% inhibition vs. no antibody), primary human B cells (human LAIR1 on cells [7]): 60.2%
EC50 (human LAIR1 on cells [8]): 0.0489 mg/L
Kd [9]: 0.121 nM
koff [9]: 0.000174 s⁻¹
kon [9]: 1.44e+06 M⁻¹ s⁻¹
B1: mAb1 (antibody, human IgG2, kappa)
heavy: QVQLQESGPGLVKPSETLSLTCTAFGGSISGHYWSWIRQPAGKGLEWIGRIYPSGGTNKNPSLKSRVTMSVDTSKNQFSLKLSSVTAADTAVYYCVRDYWDDYYGMDVWGQGTTVTVSSASTKGPSVFPLAPSSRSTSESTAALGCLVKDYFPEPVTVSWNSGALTSGVHTFPAVLQSSGLYSLSSVVTVPSSNFGTQTYTCNVDHKPSNTKVDKTVERKCCVECPPCPAPPVAGPSVFLFPPKPKDTLMISRTPEVTCVVVDVSHEDPEVQFNWYVDGMEVHNAKTKPREEQFNSTFRVVSVLTVVHQDWLNGKEYKCKVSNKGLPAPIEKTISKTKGQPREPQVYTLPPSREEMTKNQVSLTCLVKGFYPSDIAVEWESNGQPENNYKTTPPMLDSDGSFFLYSKLTVDKSRWQQGNVFSCSVMHEALHNHYTQKSLSLSPG
light: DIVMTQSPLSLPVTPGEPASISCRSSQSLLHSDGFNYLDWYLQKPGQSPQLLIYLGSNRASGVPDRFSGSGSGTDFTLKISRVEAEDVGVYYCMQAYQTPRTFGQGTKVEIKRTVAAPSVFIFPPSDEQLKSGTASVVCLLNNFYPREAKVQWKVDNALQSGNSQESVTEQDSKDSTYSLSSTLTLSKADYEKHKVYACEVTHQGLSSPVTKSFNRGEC
notes: also called anti-human LAIR1 antibody mAb1

EC50 (human LAIR1 on cells [1]): 0.0162 mg/L
Inhibition of IFN-γ response at 1 µg/mL (% inhibition vs. no antibody), primary human T cells (human LAIR1 on cells [2]): 41.1%
EC50 (human LAIR1 on cells [3]): 0.0565 mg/L
EC50 [4]: 0.0893 mg/L
Inhibition of NFAT Activity (% inhibition vs. no antibody), Jurkat-cyLAIR1+ [5]: 65.5%
IC50 of antibody activity, Jurkat-hLAIR1+ NFAT (human LAIR1 on cells [6]): 0.00666 mg/L
Inhibition of NFAT Activity (% inhibition vs. no antibody), Jurkat-hLAIR1+ (human LAIR1 on cells [6]): 60.4%
Inhibition of IL-6 response at 8 ng/mL (% inhibition vs. no antibody), primary human B cells (human LAIR1 on cells [7]): 42.7%
binding result (Human C1q): no binding (tested: 10 ug/mL)
LogIC50 of % receptor occupancy, CD4 T cells (human LAIR1 on cells [10]): -0.933
LogIC50 of % receptor occupancy, CD8 T cells (human LAIR1 on cells [11]): -0.864
EC50 (human LAIR1 on cells [8]): 0.0349 mg/L
IC50 of inhibition of B cell IL-6 response to BCR stimulation (human LAIR1 on cells [12]): 0.0002 nM and 0.03 ng/mL
IC50 of inhibition of Jurkat-hLAIR1+ NFAT activation (human LAIR1 on cells [12]): 0.045 nM
Kd [9]: 0.291 nM
koff [9]: 0.000317 s⁻¹
kon [9]: 1.09e+06 M⁻¹ s⁻¹
binding result (LAIR2): no binding (tested: 10 ug/ml)
LogIC50 of % receptor occupancy, Treg (human LAIR1 on cells [13]): -0.771
B2: mAb4 (antibody, human IgG4 S228P, kappa)
heavy: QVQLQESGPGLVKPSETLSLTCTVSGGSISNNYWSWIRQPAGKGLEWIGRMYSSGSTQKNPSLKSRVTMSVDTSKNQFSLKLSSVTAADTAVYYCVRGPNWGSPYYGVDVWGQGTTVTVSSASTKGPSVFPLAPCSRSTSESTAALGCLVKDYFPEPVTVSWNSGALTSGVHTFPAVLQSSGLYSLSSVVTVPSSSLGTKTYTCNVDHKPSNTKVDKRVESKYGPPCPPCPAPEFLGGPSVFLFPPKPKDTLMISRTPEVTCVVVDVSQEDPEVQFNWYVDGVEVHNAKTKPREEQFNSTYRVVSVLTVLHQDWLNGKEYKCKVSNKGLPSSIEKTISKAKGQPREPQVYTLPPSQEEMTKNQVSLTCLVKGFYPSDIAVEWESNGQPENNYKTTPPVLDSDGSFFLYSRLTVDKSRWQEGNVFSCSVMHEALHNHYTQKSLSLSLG
light: DIVMTQSPLSLPVTPGEPASISCRSSPSLLHSDGYNWLDWYLQKPGQSPQLLIYLGSNRASGVPDRFSGSGSGTDFTLKISRVEAEDVGVYYCMQAHQTPFTFGQGTKVEIKRTVAAPSVFIFPPSDEQLKSGTASVVCLLNNFYPREAKVQWKVDNALQSGNSQESVTEQDSKDSTYSLSSTLTLSKADYEKHKVYACEVTHQGLSSPVTKSFNRGEC
notes: also called anti-human LAIR1 mAb4; LAIR1 agonist antibody

EC50 (human LAIR1 on cells [1]): 0.0288 mg/L
Inhibition of IFN-γ response at 1 µg/mL (% inhibition vs. no antibody), primary human T cells (human LAIR1 on cells [2]): 45.8%
EC50 (human LAIR1 on cells [3]): 0.058 mg/L
EC50 [4]: 0.0824 mg/L
Inhibition of NFAT Activity (% inhibition vs. no antibody), Jurkat-cyLAIR1+ [5]: 59.6%
IC50 of antibody activity, Jurkat-hLAIR1+ NFAT (human LAIR1 on cells [6]): 0.00858 mg/L
Inhibition of NFAT Activity (% inhibition vs. no antibody), Jurkat-hLAIR1+ (human LAIR1 on cells [6]): 49.8%
Inhibition of IL-6 response at 8 ng/mL (% inhibition vs. no antibody), primary human B cells (human LAIR1 on cells [7]): 35.4%
EC50 (human LAIR1 on cells [8]): 0.0414 mg/L
Kd [9]: 0.312 nM
koff [9]: 0.000341 s⁻¹
kon [9]: 1.09e+06 M⁻¹ s⁻¹
B3: mAb2 (antibody, human IgG2, kappa)
heavy: QVQLQESGPGLVKPSETLSLTCTVSGGSISNNYWSWIRQPAGKGLEWIGRMYSSGSTQKNPSLKSRVTMSVDTSKNQFSLKLSSVTAADTAVYYCVRGPNWGSPYYGVDVWGQGTTVTVSSASTKGPSVFPLAPSSRSTSESTAALGCLVKDYFPEPVTVSWNSGALTSGVHTFPAVLQSSGLYSLSSVVTVPSSNFGTQTYTCNVDHKPSNTKVDKTVERKCCVECPPCPAPPVAGPSVFLFPPKPKDTLMISRTPEVTCVVVDVSHEDPEVQFNWYVDGMEVHNAKTKPREEQFNSTFRVVSVLTVVHQDWLNGKEYKCKVSNKGLPAPIEKTISKTKGQPREPQVYTLPPSREEMTKNQVSLTCLVKGFYPSDIAVEWESNGQPENNYKTTPPMLDSDGSFFLYSKLTVDKSRWQQGNVFSCSVMHEALHNHYTQKSLSLSPG
light: B2 light
notes: also called anti-human LAIR1 antibody mAb2
